This note sets out measurements from the supplement of paper PMC10567573.

To fix the notation:
B1: TRAF3IP2 (parent)
chain: PRPPSNPPARGTLKTSNLPEELRK
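Note: lentivirally expressed fusions sorted by FACS into six bins by GFP to DsRed ratio, PSI derived from sequencing read proportions per bin multiplied by bin number.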

In the data set the parent is B1. Kind of data set: protein stability index of a GFP-peptide fusion (GPS, HEK-293T) (PSI 1-6); higher = more stable. As to conditions: c terminus: a fixed tail appended.
For the variant PRPVSNPPARGTLKTSNLPEELRK [P4V], the protein stability index is 4.53.
Then PRPYSNPPARGTLKTSNLPEELRK [P4Y], with 4.43.
Then PRPTSNPPARGTLKTSNLPEELRK [P4T], with 3.97; and PRPWSNPPARGTLKTSNLPEELRK [P4W], with 4.61.
Consider PRPSSNPPARGTLKTSNLPEELRK [P4S], for which the protein stability index is 4.89.
Next, PRPPSNLPARGTLKTSNLPEELRK [P7L]: 4.83.
Next, PRPPSNQPARGTLKTSNLPEELRK [P7Q]: 4.56; PRPPSNRPARGTLKTSNLPEELRK [P7R]: 4.75.
Next, PRPPSNFPARGTLKTSNLPEELRK [P7F]: 4.21; PRPPSNWPARGTLKTSNLPEELRK [P7W]: 4.02.
Regarding PRPPSNSPARGTLKTSNLPEELRK [P7S], the protein stability index turned out to be 4.89.
Then PRPPSNYPARGTLKTSNLPEELRK [P7Y], with 4.05.
Then PRPPSNAPARGTLKTSNLPEELRK [P7A], with 4.8; and PRPPSNCPARGTLKTSNLPEELRK [P7C], with 4.4; and PRPPSNIPARGTLKTSNLPEELRK [P7I], with 4.5.
With PRPPSNDPARGTLKTSNLPEELRK [P7D], the protein stability index is 4.97.
Then PRPPSNNPARGTLKTSNLPEELRK [P7N], with 5.17; and PRPPSNTPARGTLKTSNLPEELRK [P7T], with 4.76; and PRPPSNKPARGTLKTSNLPEELRK [P7K], with 4.53.
Then PRPPSNVPARGTLKTSNLPEELRK [P7V], with 4.11; and PRPPSNEPARGTLKTSNLPEELRK [P7E], with 4.81.
Regarding PRPPSNMPARGTLKTSNLPEELRK [P7M], the protein stability index is 4.09.
Next, PRPPSNGPARGTLKTSNLPEELRK [P7G]: 4.58.
With PRPPSNHPARGTLKTSNLPEELRK [P7H], the protein stability index came out at 4.27.
Next, PRPPSNPPARGTLKHSNLPEELRK [T15H]: 4.99; PRPPSNPPARGTLKQSNLPEELRK [T15Q]: 4.48.
Turning to PRPPSNPPARGTLKNSNLPEELRK [T15N], the protein stability index worked out at 4.53.
With PRPPSNPPARGTLKDSNLPEELRK [T15D], the protein stability index was found to be 5.13.
Next, PRPPSNPPARGTLKFSNLPEELRK [T15F]: 4.29; PRPPSNPPARGTLKKSNLPEELRK [T15K]: 4.82.
With PRPPSNPPARGTLKGSNLPEELRK [T15G], the protein stability index is 4.95.
Next, PRPPSNPPARGTLKISNLPEELRK [T15I]: 4.14.
Next, PRPPSNPPARGTLKPSNLPEELRK [T15P]: 4.64; PRPPSNPPARGTLKLSNLPEELRK [T15L]: 4.29.
Next, PRPPSNPPARGTLKMSNLPEELRK [T15M]: 4.43.
As to PRPPSNPPARGTLKESNLPEELRK [T15E], the protein stability index was determined as 4.94.
Then PRPPSNPPARGTLKASNLPEELRK [T15A], with 4.22.
Then PRPPSNPPARGTLKCSNLPEELRK [T15C], with 4.72; and PRPPSNPPARGTLKRSNLPEELRK [T15R], with 4.52.
Then PRPPSNPPARGYLKTSNLPEELRK [T12Y], with 4.78; and PRPPSNPPARGQLKTSNLPEELRK [T12Q], with 4.52; and PRPPSNPPARGCLKTSNLPEELRK [T12C], with 4.24.
Regarding PRPPSNPPARGGLKTSNLPEELRK [T12G], the protein stability index turned out to be 4.
Next, PRPPSNPPARGVLKTSNLPEELRK [T12V]: 4.41; PRPPSNPPARGDLKTSNLPEELRK [T12D]: 4.88.
Then PRPPSNPPARGNLKTSNLPEELRK [T12N], with 4.42; and PRPPSNPPARGMLKTSNLPEELRK [T12M], with 4.56; and PRPPSNPPARGLLKTSNLPEELRK [T12L], with 4.65.
Turning to PRPPSNPPARGRLKTSNLPEELRK [T12R], the protein stability index was 4.58.
Then PRPPSNPPARGWLKTSNLPEELRK [T12W], with 3.65; and PRPPSNPPARGELKTSNLPEELRK [T12E], with 4.54; and PRPPSNPPARGFLKTSNLPEELRK [T12F], with 4.3.
In the case of PRPPSNPPARGSLKTSNLPEELRK [T12S], the protein stability index was found to be 4.35.
Next, PRPPSNPPARGHLKTSNLPEELRK [T12H]: 4.75.
For the variant PRPPSNPPARGILKTSNLPEELRK [T12I], the protein stability index was 4.54.
Next, PRPPSNPPARGALKTSNLPEELRK [T12A]: 4.66.
Then PRPPSNPPARGKLKTSNLPEELRK [T12K], with 4.7.
With PRPPSNPPARGTDKTSNLPEELRK [L13D], the protein stability index stood at 5.09.
Next, PRPPSNPPARGTCKTSNLPEELRK [L13C]: 3.92; PRPPSNPPARGTAKTSNLPEELRK [L13A]: 4.52; PRPPSNPPARGTGKTSNLPEELRK [L13G]: 4.67.
For the variant PRPPSNPPARGTEKTSNLPEELRK [L13E], the protein stability index was determined as 5.04.
For the variant PRPPSNPPARGTIKTSNLPEELRK [L13I], the protein stability index was 4.6.
Then PRPPSNPPARGTKKTSNLPEELRK [L13K], with 4.79; and PRPPSNPPARGTFKTSNLPEELRK [L13F], with 4.37.
Then PRPPSNPPARGTMKTSNLPEELRK [L13M], with 5.06; and PRPPSNPPARGTTKTSNLPEELRK [L13T], with 4.82; and PRPPSNPPARGTQKTSNLPEELRK [L13Q], with 4.8.
In the case of PRPPSNPPARGTRKTSNLPEELRK [L13R], the protein stability index came to 4.6.
For PRPPSNPPARGTNKTSNLPEELRK [L13N], the protein stability index was determined as 5.15.
Next, PRPPSNPPARGTHKTSNLPEELRK [L13H]: 4.36; PRPPSNPPARGTSKTSNLPEELRK [L13S]: 4.94; PRPPSNPPARGTVKTSNLPEELRK [L13V]: 5.32.
Then PRPPSNPPARGTWKTSNLPEELRK [L13W], with 4.44.
Next, PRPPSNPPARGTYKTSNLPEELRK [L13Y]: 4.25; PRPPKNPPARGTLKTSNLPEELRK [S5K]: 4.21.
As to PRPPWNPPARGTLKTSNLPEELRK [S5W], the protein stability index came out at 3.98.
Then PRPPGNPPARGTLKTSNLPEELRK [S5G], with 4.89; and PRPPLNPPARGTLKTSNLPEELRK [S5L], with 4.19.
Then PRPPINPPARGTLKTSNLPEELRK [S5I], with 4.75; and PRPPVNPPARGTLKTSNLPEELRK [S5V], with 4.76; and PRPPDNPPARGTLKTSNLPEELRK [S5D], with 3.83.
Take PRPPMNPPARGTLKTSNLPEELRK [S5M]: the protein stability index was 5.
As to PRPPQNPPARGTLKTSNLPEELRK [S5Q], the protein stability index amounted to 4.45.
For the variant PRPPNNPPARGTLKTSNLPEELRK [S5N], the protein stability index is 4.63.
Then PRPPFNPPARGTLKTSNLPEELRK [S5F], with 4.45; and PRPPTNPPARGTLKTSNLPEELRK [S5T], with 4.56.
Then PRPPENPPARGTLKTSNLPEELRK [S5E], with 4.55; and PRPPCNPPARGTLKTSNLPEELRK [S5C], with 4.28.
PRPPHNPPARGTLKTSNLPEELRK [S5H]: the protein stability index worked out at 4.38.
Then PRPPYNPPARGTLKTSNLPEELRK [S5Y], with 3.84; and PRPPANPPARGTLKTSNLPEELRK [S5A], with 4.32; and PRPPRNPPARGTLKTSNLPEELRK [S5R], with 4.36.
Then PRPPSNPPARVTLKTSNLPEELRK [G11V], with 4.37.
